Here are results for 2 molecules from patent publication US20170281792A1 (Genentech, published 2017).

Test [1] addresses T1, human mesothelin on cells (endogenous on tumour cell lines and tissue, or stably expressed on A431 or HT1080 … (human, UniProt Q13421 296-580)).
T1 construct: also called endogenous mesothelin; endogenous human mesothelin
Description: Scatchard analysis (125I-labelled antibody) on HPAF-II cells, endogenous mesothelin. As for the experimental part:
(§1) The data was analyzed with non-linear regression curve fitting in the New Ligand program (Genentech, Inc., South San Francisco, Calif.) to estimate Kd values (Munson et al., Anal. Biochem., 107 220-239 (1980)).

The target of test [2] is T2, gD epitope-tagged human mesothelin expressed on cells (construct #387) (human, UniProt Q13421 296-580).
T2 construct: also called gD-human mesothelin; gD-tagged human mesothelin
T2 sequence (Q13421 other isoform, or with tags, fused parts or gaps): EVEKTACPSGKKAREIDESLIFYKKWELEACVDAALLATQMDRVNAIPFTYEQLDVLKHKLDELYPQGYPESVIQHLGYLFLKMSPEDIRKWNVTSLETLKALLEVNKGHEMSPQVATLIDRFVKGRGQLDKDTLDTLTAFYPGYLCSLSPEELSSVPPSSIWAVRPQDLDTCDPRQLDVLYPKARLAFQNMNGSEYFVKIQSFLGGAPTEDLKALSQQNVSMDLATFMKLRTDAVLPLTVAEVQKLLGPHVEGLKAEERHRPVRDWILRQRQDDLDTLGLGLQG
Description: Scatchard, 125I-labelled antibody on stably transfected 293 cells. As for the experimental part:
as §1

The target of test [3] is T1, human mesothelin on cells (endogenous …). Description: Scatchard analysis (125I-labelled antibody) on HPAC cells, endogenous mesothelin. As to the method: as §1
For test [4], the target named is T3, gD epitope-tagged mouse mesothelin expressed on cells (construct #385) (mouse, UniProt Q61468 298-582).
T3 sequence: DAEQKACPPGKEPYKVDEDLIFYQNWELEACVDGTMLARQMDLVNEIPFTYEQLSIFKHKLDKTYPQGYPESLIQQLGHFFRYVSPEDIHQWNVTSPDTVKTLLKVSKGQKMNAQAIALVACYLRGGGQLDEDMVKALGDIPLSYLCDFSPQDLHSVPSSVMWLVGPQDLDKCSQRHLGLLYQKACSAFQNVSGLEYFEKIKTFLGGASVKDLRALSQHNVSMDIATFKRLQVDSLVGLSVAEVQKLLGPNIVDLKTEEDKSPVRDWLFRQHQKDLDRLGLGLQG
Description: FACS on stably transfected 293 cells. As to the method: Monoclonal antibodies were tested to determine if they cross-react with mesothelin from species other than human. […] Shaded residues are identical between at least two species. Unshaded residues differ between at least two of the four species. […] Anti-gD staining verified that mouse mesothelin was indeed expressed.

Test [5] addresses T2, gD epitope-tagged human mesothelin …. Description: Scatchard, 125I-labelled antibody on stably transfected BJAB cells. As to the method:
as §1

In test [6] the target is T1, human mesothelin on cells (endogenous …). Description: Scatchard; range for endogenous mesothelin in four pancreatic and two ovarian cell lines. As to the method: as §1
Test [7] shares this target. Description: Scatchard analysis (125I-labelled antibody) on AsPC1 cells, endogenous mesothelin. As for the experimental part: as §1
For test [8] the target is unchanged. The test is described as follows: Scatchard analysis (125I-labelled antibody) on OvCar3 cells, endogenous mesothelin. As to the method:
as §1

For test [9] the target is unchanged. Description: Scatchard analysis (125I-labelled antibody) on OvCar3x2.1 cells, endogenous mesothelin. As for the experimental part:
as §1

The target of test [10] is T2, gD epitope-tagged human mesothelin …. The test is described as follows: Scatchard, 125I-labelled antibody on stably transfected HT1080 cells. As for the experimental part: as §1
Test [11] has as its target T4, gD epitope-tagged rat mesothelin expressed on cells (rat, UniProt Q9ERA7 298-582).
T4 sequence: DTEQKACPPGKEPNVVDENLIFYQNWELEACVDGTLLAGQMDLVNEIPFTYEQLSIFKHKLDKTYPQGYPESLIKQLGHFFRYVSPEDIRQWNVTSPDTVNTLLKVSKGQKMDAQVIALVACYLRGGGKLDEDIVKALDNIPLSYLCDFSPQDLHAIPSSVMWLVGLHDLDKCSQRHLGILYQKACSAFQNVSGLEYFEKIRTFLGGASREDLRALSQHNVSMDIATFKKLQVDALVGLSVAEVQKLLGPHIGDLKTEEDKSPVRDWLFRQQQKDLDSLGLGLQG
The test is described as follows: immunoprecipitation from BJAB cells stably expressing gD-tagged rat mesothelin, Western blot with murine anti-gD. In general terms: Immunoblotting shows a protein as a band on a membrane.

Test [12] deals with T5, E. coli derived recombinant human mesothelin (human, UniProt Q13421 296-580).
T5 construct: not shown: N-terminal unizyme His (HQ)-tag
T5 sequence (Q13421 other isoform, or with tags, fused parts or gaps): as the sequence (Q13421 other isoform, or with tags, fused parts or gaps) above
The test is described as follows: Biacore-2000, IgG over immobilised E. coli derived human mesothelin, 1:1 fit. As for the experimental part:
7D9 variants were expressed as IgG by CHO transient transfection. IgG was purified with protein G affinity chromatography. The affinity of each 7D9 IgG variant for human mesothelin was determined by surface plasmon resonance using a BIACORE™-2000. BIACORE™ research grade CM5 chips were immobilized with approximately 110 RU of E. coli derived recombinant human mesothelin using the amine coupling kit from BIACORE™. […] Each sample was analyzed with 5-minute association and 3.5-minute dissociation. After each injection the chip was regenerated using 10 mM Glycine pH 1.7. Binding response was corrected by subtracting the RU from a flow cell with an irrelevant IgG immobilized at similar density. A 1:1 Languir model of simultaneous fitting of kₒₙ and koff was used for kinetics analysis.

Test [13] concerns the target T6, gD epitope-tagged cynomolgus monkey mesothelin expressed on cells (construct #383) (cynomolgus monkey).
T6 construct: also called cyno mesothelin
T6 chain: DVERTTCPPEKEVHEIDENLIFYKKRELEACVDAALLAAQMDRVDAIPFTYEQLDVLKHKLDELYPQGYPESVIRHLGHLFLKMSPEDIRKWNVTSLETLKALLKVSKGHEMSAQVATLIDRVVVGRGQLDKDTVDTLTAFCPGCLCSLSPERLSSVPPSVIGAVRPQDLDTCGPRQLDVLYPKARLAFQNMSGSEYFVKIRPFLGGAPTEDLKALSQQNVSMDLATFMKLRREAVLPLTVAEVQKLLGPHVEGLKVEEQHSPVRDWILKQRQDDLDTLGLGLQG
Description: immunoprecipitation from BJAB cells stably expressing gD-tagged cyno mesothelin, Western blot with murine anti-gD.

Test [14] concerns the target T7, C-terminally his-tagged human mesothelin expressed in CHO cells (Mono S fractions A11, A12, B1, B5) (human, UniProt Q13421 296-580).
T7 construct: also called glycosylated mesothelin; not shown: C-terminal his tag
The test is described as follows: SPR: each Mono S fraction (A11, A12, B1, B5) flowed over a chip with prebound h7D9.v3. An excerpt:
To determine whether h7D9.v3 binds to glycosylated mesothelin, C-terminally his-tagged human mesothelin was expressed in CHO cells, purified and further separated according to charge on a Mono S column into fractions with high (fraction A11), medium (A12), low (B1) and low-to-none (B5) glycosylation of mesothelin, as shown by Coomassie Blue staining on an SDS-PAGE gel. (FIG. 20, top left). […] (FIG. 20, right).

The target in test [15] is T1, human mesothelin on cells (endogenous …). The test is described as follows: Scatchard analysis (125I-labelled antibody) on Capan2 cells, endogenous mesothelin. As for the experimental part: as §1
Test [16] addresses T5, E. coli derived recombinant human …. The test is described as follows: Biacore (column 'Kd (nM) Biacore'); antigen preparation not given, the filing's Biacore assays use E. coli derived human mesothelin. For orientation: Surface plasmon resonance follows binding to a sensor surface in real time, without labels.
For test [17], the target named is T6, gD epitope-tagged cynomolgus monkey …. The test is described as follows: FACS on transiently transfected 293 cells.
Test [18] addresses T3, gD epitope-tagged mouse mesothelin …. Description: FACS on transiently transfected 293 cells.

T1 sequence (Q13421 other isoform, or with tags, fused parts or gaps): as the sequence (Q13421 other isoform, or with tags, fused parts or gaps) above
T7 sequence (Q13421 other isoform, or with tags, fused parts or gaps limits assumed): as the sequence (Q13421 other isoform, or with tags, fused parts or gaps) above

B1: humanized monoclonal antibody 7D9.v3 (antibody, V domains shown)
VH: EVQLVESGGGLVQPGGSLRLSCAASGYTFTTYWMHWVRQAPGKGLEWVGYIRPSTGYTEYNQKFKDRFTISADTSKNTAYLQMNSLRAEDTAVYYCARSRWLLDYWGQGTLVTVS
VL: DIQMTQSPSSLSASVGDRVTITCKSSQSVLYSSNQKNYLAWFQQKPGKAPKLLIYWASTRESGVPSRFSGSGSGTDFTLTISSLQPEDFATYFCHQYLSSYTFGQGTKVEIKR
notes: also called h7D9.v3; hu7D9.v3
B1: the Kd (as a rule, the concentration at which binding is half-saturated) in test [1] was 0.41 nM; in [2] it was 0.2 nM; in test [3] it was 1 nM; in [5] it was 0.25 nM; in test [6], 0.41 to 1 nM; in test [7], 0.58 nM. In addition, the equilibrium dissociation constant (Kd) in [8] was found to be 0.53 nM; in test [9], 0.56 nM; in test [10], 0.97 nM; in test [12], 1.9 nM; in test [14] it was 1.5 nM; in test [15], 0.63 nM. The binding result in test [4] is “no binding (tested: 10 µg/ml)”; in test [11] it was “no binding”; in test [13], “no binding”.

B2: mouse monoclonal antibody 7D9 (antibody, V domains shown)
VH: QVQLQQSGAELAKPGASVKMSCKASGYTFTTYWMHWVKQRPGQGLEWIGYIRPSTGYTEYNQKFKDKATLTADKSSSTAYMQLSSLTSEDSTVYYCARSRWLLDYWGQGTSLTVS
VL: DIMMTQSPSSLAVSAGEKVTMSCKSSQSVLYSSNQKNYLAWFQQKPGQSPKLLIYWASTRESGVPDRFTGSGSGTDFTLTISSVQAEDLAVYFCHQYLSSYTFGGGTKVEIK
notes: also called m7D9; mu7D9
For B2, in test [16], the Kd was 0.23 nM. The binding result in test [17] and in test [18] was “no binding (tested: 0.02 µg/ml)” throughout.
